Consider two molecules from paper PMC3265607 (Journal of Molecular Biology, 2011).

Assay [1] deals with ceNXT1, His6, pET28b construct for pull-down assays (Caenorhabditis elegans) (UniProt Q9U757). Briefly: SEC. Background: Size exclusion chromatography separates by hydrodynamic size, large species first.
Assay [2] concerns the target T1, ceNXT1 (residues 2-137), His6, pETDuet-1 construct for structural studies (Caenorhabditis elegans, UniProt Q9U757 2-137, SeMet-labeled (selenomethionine)).
T1 sequence (looked up): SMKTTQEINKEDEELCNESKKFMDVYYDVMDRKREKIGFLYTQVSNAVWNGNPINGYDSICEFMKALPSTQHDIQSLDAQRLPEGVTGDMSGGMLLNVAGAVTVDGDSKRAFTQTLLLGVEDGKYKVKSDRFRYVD
As to the kind of experiment: SEC.

“ceNXF1(NTF2) (from UniProt Q9XVS7 352-539) (domain or fragment)” had a stoichiometry N in assay [1] of 1.

B1: ceNXF2(NTF2) (domain or fragment, Caenorhabditis elegans, UniProt Q9XVS8 202-405, looked up)
chain: FRNGYYGSDEVRTLVEEFIITYYKIYDGADGQQTRKQLLDAYDTNNSTFTHTVVCLWDPIKFVMYPDSESYRMYLRTSHNVLNQEYFAANRASRISHGAMDIVVALSRLPATIHLMDTFVVDVFLVSATLLGFTLHGTFRDGPSAIKPENTEEHDNYFTRTFMVAPRGEGKVAIVSDQLFISSMSKRRGDQYRMLVETATDIDQ
As to B1, the “stoichiometry N” value in assay [2] stood at 1.

One may read the stoichiometry N as the number of molecules, sites or subunits per partner or assembly.
